No end group written: not given here.
What was measured:
AsPC-1 cells = type: cell-based; conditions: 48 h
Protocol: Through 3-(4,5-dimethylthiazol-2-yl)-2,5-diphenyltetrazolium bromide (MTT) analysis, an effect of the anticancer peptide GJ101 on the cell viability of cancer cells was examined. For the cell viability analysis, AsPC-1 cells as a pancreatic cancer cell line were used. The pancreatic cancer cell line was prepared by dispensing the pancreatic cancer cell line at 1×10^3 cells/well (100 μL) and adhering thereto. To treat the anticancer peptide GJ101, the medium of the cells was replaced with a new medium (RPMI-1640). The pancreatic cancer cell lines with different adhering times were treated with the anticancer peptide GJ101 while increasing a concentration gradient, respectively. The pancreatic cancer cells treated with the anticancer peptide GJ101 were incubated for 24 or 48 hours, respectively. Each incubated pancreatic cancer cell was added with an MTT solution (5 mg/mL) and incubated for 90 minutes. After the end of the incubation, an optical density (OD) of pancreatic cancer cells was measured at 540 nm using a microplate reader (Molecular Devices, USA), and a maximum concentration (GI50) at which the growth of pancreatic cancer cells was reduced by half was confirmed. The result of examining the effect of the anticancer peptide GJ101 on the cell viability of tumor cells was illustrated in FIG. 5.

[1] = body weight and general condition in cancer animal model; type: in vivo; conditions: GJ101 25 mg/kg or 50 mg/kg
Protocol: To prepare a cancer animal model, AsPC-1 cells as a pancreatic cancer cell line were prepared by dissociation in a Hanks' balanced salt solution (HBSS) and a materigel. The prepared AsPC-1 cells were transplanted into the right flank of a nude mouse at an amount of 2×10^6 cells/10 μL/animal to prepare a cancer animal model.
For an experiments to be described later, the anticancer peptide GJ101 was administered at a concentration of 25 mg/kg or 50 mg/kg from day 16 after the preparation of the cancer animal model. In addition, a control group (Vehicle) was treated with 10% DMSO, 40% PEG400, and 50% DW.
A drug was administered to a cancer animal model, and then the body weight of the individual was measured once a day, and the result were illustrated in FIG. 6.

KRAS G12V protein [2] = biological target: T1, KRAS G12V protein (UniProt P01116-2 1-188, limits assumed); assay: ITC, GJ101 (1.0 mM) injected into KRAS G12V (0.1 mM), 25 °C
T1 construct: also called mutant KRAS G12V; mutant Kirsten-RAS
Protocol: (§1) In order to examine the affinity of the anticancer peptide GJ101 to the KRAS G12V protein, isothermal titration heat was measured using isothermal titration calorimetry (ITC). Specifically, the KRAS G12V protein was prepared by dialysis with a buffer [20 mM Tris-HCl (pH 7.4), 100 mM NaCl, and 2 mM MgCl₂] so that the final concentration of the KRAS G12V protein was 0.1 mM. Next, the anticancer peptide GJ101 was prepared by diluting the anticancer peptide GJ101 to a concentration of 1.0 mM using the same buffer as described above. Isothermal titration heat measurement was performed by injecting the prepared KRAS G12V protein and anticancer peptide GJ101 into isothermal titration calorimetry. In the isothermal titration heat measurement, the anticancer peptide GJ101 was injected 20 times at 25° C. while stirring at a rate of 1,000 rpm. ΔS was calculated from a standard thermodynamic equation using the calculated K and ΔH values. The results of isothermal titration calorimetry were illustrated in FIG. 3.

KRAS G12V protein [3] = biological target: T1, KRAS G12V protein; assay: ITC, calculated from K and ΔH
Protocol: as §1

Molecule | GI50 (AsPC-1 cells) [µM] | moribund state or behavioral abnormalities [1] | Ka (KRAS G12V protein [2]) [M⁻¹] | Kd (KRAS G12V protein [2]) [µM] | ΔH (KRAS G12V protein [2]) [kcal/mol] | ΔS (KRAS G12V protein [3]) [cal/mol/deg]
LYDVA [GJ101] | 16 | not observed | – | – | – | –
LYDVA (Synthesised by solid phase peptide synthesis and purified by RP-HPLC to 95% or more; said to consist of 5 amino acids and to be derived from H-REV107; also called mutant KRAS-targeting anticancer peptide) [anticancer peptide GJ101] | – | – | 86500 | 12 | -0.994 | 19.3
